Experimental data as given in patent US7291458B2, “Leptin-mediated gene-induction” (Vlaams Interuniversitair Instituut Voor Biotechnologie VZW, priority 1998, dated 2007).

Experiments:
PC12 cells = assay: RDA of PC12 cells transiently transfected with pMET7-mLRlo; format: cell-based, rat; details: leptin-forskolin co-stimulated versus forskolin alone
Description: To search for genes regulated by leptin in the PC12 cell line, a RDA (representational difference analysis) experiment was performed using a modification of the original method (Hubank and Schatz, 1994). Using this procedure, it is possible to clone amplicons corresponding to transcripts from leptin-forskolin co-stimulated PC12 cells, transiently transfected with pMET7-mLRlo. After three rounds of subtraction/amplification, selectively amplified bands were purified and subcloned in the pCDNA3 or pCR-Blunt vector (Invitrogen). […] Based on this observation, a simple one-tube RT-PCR based procedure was set up to select for PC12 subclones, stably expressing the leptin receptor long isoform (FIG. 2 portion A). One stable clone, PC12-LR8, was chosen for further experiments (FIG. 2 portion B). Individual inserts from the cloned amplicon collection were radiolabeled and leptin-dependent gene regulation was verified and studied in more detail by Northern blot analysis on the PC12-LR8 cell line.
RDA was used to clone differentially expressed cDNAs from PC12 cells, transiently transfected with the leptin receptor long isoform, or from neuronal differentiated PC12-LR8 cells, which stably express the leptin receptor long isoform. In both cases, cloning was performed using mRNA from cells either stimulated with leptin+forskolin or with forskolin alone. […]

[1] = test system: differentiated PC12-LR8 cells; assay: RDA and Northern blot of leptin-responsive genes in differentiated PC12-LR8 cells; format: cell-based, rat; details: leptin 24 hours, continued presence of b-NGF and forskolin
Description: Adherent PC12-LR8 cells were treated with b-NGF and forskolin for 5 days to induce neuronal differentiation. Differentiated cells were treated with leptin (nF/L) for 24 hours, or were left untreated (nF), in the continued presence of b-NGF and forskolin. Non-differentiated cells were treated for 24 hours with leptin and forskolin (F/L) or with forskolin alone (F). Hybridization was performed with probes as indicated. Mouse b-actin probe was used as a control. Exposure to BioMax film at −80° C. was 3 days for Mx2, 3 hours for peripherin, 4 days for PAP III and 16 hours for b-actin.
The search for leptin-regulated genes was also extended to differentiated PC12 cells (FIG. 5). Adherent PC12-LR8 cells were treated with b-NGF and forskolin for 5 days, which led to a growth arrest, the formation of branched neuritic processes and the accumulation of small vesicles. Again, a RDA experiment was performed using mRNAs from differentiated cells treated with leptin for 24 hours, or from untreated cells, both in the continued presence of b-NGF and forskolin.
For neuronal differentiation, resuspended PC12 were seeded on rat tail collagen (Collaborative Biomedical Products) coated plates at 2-3 10^6 cells/25 cm^2 flask in RMPI 1640 medium with glutamax-I containing 10% heat-inactivated horse serum, 5% iFCS and gentamycin. […]

B1: leptin: mouse leptin (R&D Systems), ob gene product, used on PC12 cells at 100 ng/ml (protein)
chain: VPIQKVQDDTKTLIKTIVTRINDISHTQSVSAKQRVTGLDFIPGLHPILSLSKMDQTLAVYQQVLTSLPSQNVLQIANDLENLRDLLHLLAFSKSCSLPQTSGLQKPESLDGVLEASLYSTEVVALSRLQGSLQDILQQLDVSPEC
induction of rat Pancreatitis Associated Protein I (rPAP I) transcript (PC12 cells): strongly induced | regulation of Mx2, Peripherin and PAP III transcripts [1]: up-regulated
